Patent publication US6528633

Legend:
[1] = test system: clam E3-C/cyclosome complex, activated, partially purified
[2] = test system: non-specific ubiquitin-protein ligase (E3) from clam oocyte Fraction 1A

Chain of recombinant human Ubc4 homolog, UbcH5 (chain, as listed by the source): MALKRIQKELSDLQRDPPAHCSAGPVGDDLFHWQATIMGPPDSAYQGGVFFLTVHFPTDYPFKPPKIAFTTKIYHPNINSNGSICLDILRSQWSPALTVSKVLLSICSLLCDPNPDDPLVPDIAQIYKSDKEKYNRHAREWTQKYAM

recombinant human Ubc4 homolog, UbcH5
stimulation of cyclin-ubiquitin ligation [1]: UbcH5 caused some stimulation of cyclin-ubiquitin ligation by the clam E3-C/cyclosome complex, but the amount of conjugates formed and their size ... were much lower than those obtained with the recombinant clam protein
ligation of 125I-ubiquitin to high molecular weight conjugates [2]: UbcH5 strongly stimulated the ligation of 125I-ubiquitin to high molecular weight conjugates in the presence of non-specific E3 from clam oocytes
